Test results reported in patent EP3917571B1.

Molecular target: ERp57 (PDIA3), human, endogenous in MDA-MB-231 ER-G2 cells (human) (UniProt P30101)
Experiment: proximity ligation assay on live, intact cells (probes ab10286 and ab13506)

Chain of UniProt P30101 (P30101 25-505): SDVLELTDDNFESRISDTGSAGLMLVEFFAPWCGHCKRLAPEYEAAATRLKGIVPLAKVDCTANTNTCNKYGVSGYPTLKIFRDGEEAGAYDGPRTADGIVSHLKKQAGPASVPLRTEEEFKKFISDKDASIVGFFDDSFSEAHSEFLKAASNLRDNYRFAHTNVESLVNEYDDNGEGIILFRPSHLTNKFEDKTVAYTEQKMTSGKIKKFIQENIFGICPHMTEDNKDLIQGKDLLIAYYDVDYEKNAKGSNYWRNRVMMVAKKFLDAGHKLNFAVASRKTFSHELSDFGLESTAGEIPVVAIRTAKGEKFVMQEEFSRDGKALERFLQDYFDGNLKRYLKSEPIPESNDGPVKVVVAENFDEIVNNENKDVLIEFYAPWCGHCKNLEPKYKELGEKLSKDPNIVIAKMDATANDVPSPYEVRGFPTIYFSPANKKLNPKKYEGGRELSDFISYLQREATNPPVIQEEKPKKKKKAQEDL

B1: Calnexin (Cnx), human, endogenous in MDA-MB-231 ER-G2 and Huh7 cells (protein, UniProt P27824 21-592, looked up)
chain: HDGHDDDVIDIEDDLDDVIEEVEDSKPDTTAPPSSPKVTYKAPVPTGEVYFADSFDRGTLSGWILSKAKKDDTDDEIAKYDGKWEVEEMKESKLPGDKGLVLMSRAKHHAISAKLNKPFLFDTKPLIVQYEVNFQNGIECGGAYVKLLSKTPELNLDQFHDKTPYTIMFGPDKCGEDYKLHFIFRHKNPKTGIYEEKHAKRPDADLKTYFTDKKTHLYTLILNPDNSFEILVDQSVVNSGNLLNDMTPPVNPSREIEDPEDRKPEDWDERPKIPDPEAVKPDDWDEDAPAKIPDEEATKPEGWLDDEPEYVPDPDAEKPEDWDEDMDGEWEAPQIANPRCESAPGCGVWQRPVIDNPNYKGKWKPPMIDNPSYQGIWKPRKIPNPDFFEDLEPFRMTPFSAIGLELWSMTSDIFFDNFIICADRRIVDDWANDGWGLKKAADGAAEPGVVGQMIEAAEERPWLWVVYILTVALPVFLVILFCCSGKKQTSGMEYKKTDAPQPDVKEEEEEKEEEKDKGDEEEEGEEKLEEKQKSDAEEDGGTVSQEEEDRKPKAEEDEILNRSPRNRKPRRE
modifications: O-GalNAc (Tn) glycosylation mapped at T50, T59, T66, T79, S81 and S86 after GALA activation
proximity ligation assay signal, fold increase in MDA ER-G2 over wild-type MDA cells: 10 fold
